Results published in PMC6502667 (Journal of structural biology, 2019).
Where two headings read alike, the source gives them in different places.

Columns and labels:
[1] = target: PAM_(NS223), PAM of GAS isolate NS223 (emm91), residues 42-399 (Streptococcus pyogenes (GAS) isolate NS223 (emm91)); experiment: AUC
[2] = target: human plasminogen (human) (UniProt P00747); experiment: SPR
[3] = target: PAM_(NS223), PAM of GAS isolate NS223 (emm91), residues 42-399 (Streptococcus pyogenes (GAS) isolate NS223 (emm91)); experiment: AUC; remark: listed apart in the source
[4] = target: PAM_(SS1448), PAM of GAS isolate SS1448 (emm86.2), residues 42-375 (Streptococcus pyogenes (GAS) isolate SS1448 (emm86.2)) (UniProt P49054); experiment: AUC
[5] = target: PAM_(SS1448), PAM of GAS isolate SS1448 (emm86.2), residues 42-375 (Streptococcus pyogenes (GAS) isolate SS1448 (emm86.2)) (UniProt P49054); experiment: AUC; remark: listed apart in the source
[6] = target: PAM_(SS1572), PAM of GAS isolate SS1572 (emm223), residues 42-399 (Streptococcus pyogenes (GAS) isolate SS1572 (emm223)); experiment: AUC
[7] = target: PAM_(SS1572), PAM of GAS isolate SS1572 (emm223), residues 42-399 (Streptococcus pyogenes (GAS) isolate SS1572 (emm223)); experiment: AUC; remark: listed apart in the source
[8] = target: human plasminogen (human) (UniProt P00747); experiment: SPR; remark: listed apart in the source
[9] = target: human plasminogen (human) (UniProt P00747); experiment: SPR; remark: listed apart in the source
[10] = target: human plasminogen (human) (UniProt P00747); experiment: SPR; remark: listed apart in the source
[11] = target: human plasminogen (human) (UniProt P00747); experiment: SPR; remark: listed apart in the source
[12] = target: PAM_(SS1574), PAM of GAS isolate SS1574 (emm224), residues 42-360 (Streptococcus pyogenes (GAS) isolate SS1574 (emm224)) (UniProt P49054); experiment: AUC
[13] = target: PAM_(SS1574), PAM of GAS isolate SS1574 (emm224), residues 42-360 (Streptococcus pyogenes (GAS) isolate SS1574 (emm224)) (UniProt P49054); experiment: AUC; remark: listed apart in the source
[14] = target: PAM_(NS88.2), PAM of GAS isolate NS88.2 (emm98.1), residues 42-385 (Streptococcus pyogenes (GAS) isolate NS88.2 (emm98.1)) (UniProt P49054); experiment: AUC
[15] = target: PAM_(NS88.2), PAM of GAS isolate NS88.2 (emm98.1), residues 42-385 (Streptococcus pyogenes (GAS) isolate NS88.2 (emm98.1)) (UniProt P49054); experiment: AUC; remark: listed apart in the source
[16] = target: PAM_(NS455), PAM of GAS isolate NS455 (emm52), residues 42-401 (Streptococcus pyogenes (GAS) isolate NS455 (emm52)); experiment: AUC
[17] = target: PAM_(NS455), PAM of GAS isolate NS455 (emm52), residues 42-401 (Streptococcus pyogenes (GAS) isolate NS455 (emm52)); experiment: AUC; remark: listed apart in the source
human plasminogen [18] = target: T1, human plasminogen (human, UniProt P00747 20-810); experiment: SPR
T1 sequence (P00747 20-810): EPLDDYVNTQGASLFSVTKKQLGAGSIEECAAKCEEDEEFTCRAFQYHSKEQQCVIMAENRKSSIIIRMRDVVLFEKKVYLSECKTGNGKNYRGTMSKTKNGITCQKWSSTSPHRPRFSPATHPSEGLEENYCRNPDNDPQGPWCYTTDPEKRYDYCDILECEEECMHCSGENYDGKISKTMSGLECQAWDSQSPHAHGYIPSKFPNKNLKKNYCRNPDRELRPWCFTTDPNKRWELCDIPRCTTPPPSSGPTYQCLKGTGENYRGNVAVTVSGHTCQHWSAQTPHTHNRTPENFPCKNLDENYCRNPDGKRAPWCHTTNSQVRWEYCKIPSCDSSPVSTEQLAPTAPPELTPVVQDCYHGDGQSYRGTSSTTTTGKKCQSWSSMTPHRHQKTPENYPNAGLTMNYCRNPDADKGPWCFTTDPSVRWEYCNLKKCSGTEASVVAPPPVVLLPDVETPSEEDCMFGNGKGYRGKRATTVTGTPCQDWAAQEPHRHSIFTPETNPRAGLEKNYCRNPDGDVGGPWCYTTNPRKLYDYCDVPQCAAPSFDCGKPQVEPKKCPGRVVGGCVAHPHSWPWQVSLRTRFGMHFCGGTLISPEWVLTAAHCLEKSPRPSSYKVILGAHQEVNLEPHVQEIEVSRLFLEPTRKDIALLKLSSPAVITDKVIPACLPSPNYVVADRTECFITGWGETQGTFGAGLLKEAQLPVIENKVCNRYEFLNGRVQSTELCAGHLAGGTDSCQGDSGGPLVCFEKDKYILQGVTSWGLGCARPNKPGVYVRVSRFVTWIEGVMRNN

human plasminogen [19] = target: T1, human plasminogen; experiment: SPR; remark: listed apart in the source
human plasminogen [20] = target: T1, human plasminogen; experiment: SPR; remark: listed apart in the source
human plasminogen [21] = target: T1, human plasminogen; experiment: SPR; remark: listed apart in the source
human plasminogen [22] = target: T1, human plasminogen; experiment: SPR; remark: listed apart in the source

human plasminogen (human), sequence (P00747 20-810): as above

PAM_(NS223), PAM of GAS isolate NS223 (emm91), residues 42-399 (natural protein)
% dimer [1]: 33.7% | koff [2]: 0.0056 s⁻¹ | % dimer [3]: 94.5%

PAM_(AP53), plasminogen-binding group A streptococcal M-protein of GAS isolate AP53 (emm53), residues 42-392 (natural protein)
Kd [2]: 21 nM | koff [2]: 0.0043 s⁻¹ | kon [2]: 210000 M⁻¹ s⁻¹

PAM_(SS1448), PAM of GAS isolate SS1448 (emm86.2), residues 42-375 (from UniProt P49054 42-375) (natural protein)
% dimer [4]: 56.4% | Kd [2]: 7000 nM | % dimer [5]: 86.7%

PAM_(SS1572), PAM of GAS isolate SS1572 (emm223), residues 42-399 (natural protein)
% dimer [6]: 75.3% | Kd [2]: 40 nM | koff [2]: 0.0055 s⁻¹ | kon [2]: 170000 M⁻¹ s⁻¹ | % dimer [7]: 95%

AGL55_(NS88.2), peptide of PAM_(NS88.2) residues 95-149 (from UniProt P49054 95-149)
Kd [8]: 7100 nM | Kd [9]: 830 nM | Kd [2]: 160 nM | Kd [10]: 630 nM | Kd [11]: 350 nM

PAM_(SS1574), PAM of GAS isolate SS1574 (emm224), residues 42-360 (from UniProt P49054 42-360) (natural protein)
% dimer [12]: 33.5% | Kd [2]: 14 nM | koff [2]: 0.0075 s⁻¹ | kon [2]: 562000 M⁻¹ s⁻¹ | % dimer [13]: 100%

KTI55_(SS1448), peptide of PAM_(SS1448) residues 85-139 (from UniProt P49054 85-139)
Kd [8]: 27000 nM | Kd [9]: 1500 nM | Kd [2]: 360 nM | Kd [10]: 2100 nM | Kd [11]: 540 nM

PAM_(NS88.2), PAM of GAS isolate NS88.2 (emm98.1), residues 42-385 (from UniProt P49054 42-385) (natural protein)
% dimer [14]: 55.5% | Kd [2]: 5700 nM | % dimer [15]: 91.4%

PAM_(NS455), PAM of GAS isolate NS455 (emm52), residues 42-401 (natural protein)
% dimer [16]: 20.4% | Kd [2]: 6 nM | koff [2]: 0.0014 s⁻¹ | kon [2]: 340000 M⁻¹ s⁻¹ | % dimer [17]: 86.8%

B1: VEK75_(AP53), peptide of PAM_(AP53) residues 97-171 (peptide)
chain: VEKLTADAELQRLKNERHEEAELERLKSERHDHDKKEAERKALEDKLADKQEHLNGALRYINEKEAEAKEKEAEQ
modifications: Paper number minus 12 gives the entry number. N-terminal GS left by thrombin cleavage is omitted
Kd (human plasminogen [18]): 45 nM | Kd (human plasminogen [19]): 15 nM | Kd (human plasminogen [20]): 0.7 nM

B2: PAM_(AP53_medium), truncated PAM_(AP53), residues 42-207 (HVR-a1a2-B-c1) (domain or fragment)
chain: NRADDARNEVLRGNLVRAELWYRQIQENDQLKLENKGLKTDLREKEEELQGLKDDVEKLTADAELQRLKNERHEEAELERLKSERHDHDKKEAERKALEDKLADKQEHLNGALRYINEKEAEAKEKEAEQKKLKEEKQISDASRQGLRRDLDASREAKKQVEKDLA
modifications: Paper number minus 12 gives the entry number. His6 left out. About 11% dimer at 25 C
Kd (human plasminogen [21]): 2.4 nM | koff (human plasminogen [21]): 0.00054 s⁻¹ | kon (human plasminogen [21]): 230000 M⁻¹ s⁻¹ | Kd (human plasminogen [22]): 16 nM | koff (human plasminogen [22]): 0.0103 s⁻¹ | kon (human plasminogen [22]): 650000 M⁻¹ s⁻¹

B3: PAM_(AP53_long), truncated PAM_(AP53), residues 42-338 (HVR-a1a2-B-c1c2c3-D) (domain or fragment)
chain: NRADDARNEVLRGNLVRAELWYRQIQENDQLKLENKGLKTDLREKEEELQGLKDDVEKLTADAELQRLKNERHEEAELERLKSERHDHDKKEAERKALEDKLADKQEHLNGALRYINEKEAEAKEKEAEQKKLKEEKQISDASRQGLRRDLDASREAKKQVEKDLANLTAELDKVKEEKQISDASRQGLRRDLDASREAKKQVEKGLANLTAELDKVKEEKQISDASRQGLRRDLDASREAKKQVEKALEEANSKLAALEKLNKELEESKKLTEKEKAELQAKLEAEAKALKEQLAK
modifications: Paper number minus 12 gives the entry number. His6 left out. Coiled-coil dimer (87% at 25 C)
Kd (human plasminogen [21]): 2 nM | koff (human plasminogen [21]): 0.00013 s⁻¹ | kon (human plasminogen [21]): 90000 M⁻¹ s⁻¹ | Kd (human plasminogen [22]): 37 nM | koff (human plasminogen [22]): 0.0043 s⁻¹ | kon (human plasminogen [22]): 120000 M⁻¹ s⁻¹
